Here are results for one molecule from article PMC6120219.

The assay concerns the target T1, human TRAP1 (TNF receptor-associated protein 1), full-length WT without mitochondrial signal sequence (human) (UniProt Q12931).
T1 sequence: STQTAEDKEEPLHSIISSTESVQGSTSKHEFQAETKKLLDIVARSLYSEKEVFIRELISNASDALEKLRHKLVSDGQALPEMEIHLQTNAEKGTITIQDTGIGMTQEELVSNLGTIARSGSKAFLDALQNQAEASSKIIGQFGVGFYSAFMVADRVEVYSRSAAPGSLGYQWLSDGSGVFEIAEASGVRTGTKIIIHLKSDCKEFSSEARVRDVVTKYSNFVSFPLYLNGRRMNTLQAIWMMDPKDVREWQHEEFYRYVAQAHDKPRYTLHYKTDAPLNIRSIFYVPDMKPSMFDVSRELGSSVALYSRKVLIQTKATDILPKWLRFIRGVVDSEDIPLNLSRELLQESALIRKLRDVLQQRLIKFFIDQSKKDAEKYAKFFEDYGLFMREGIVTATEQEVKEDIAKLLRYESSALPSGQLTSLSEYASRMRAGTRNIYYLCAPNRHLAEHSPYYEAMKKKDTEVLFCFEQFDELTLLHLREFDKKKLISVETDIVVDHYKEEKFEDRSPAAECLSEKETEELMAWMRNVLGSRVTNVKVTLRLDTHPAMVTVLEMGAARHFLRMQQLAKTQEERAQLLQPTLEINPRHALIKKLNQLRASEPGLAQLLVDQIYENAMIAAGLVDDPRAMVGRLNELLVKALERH

B1: human TRAP1 D158N point mutant (natural protein)
chain: STQTAEDKEEPLHSIISSTESVQGSTSKHEFQAETKKLLDIVARSLYSEKEVFIRELISNASDALEKLRHKLVSDGQALPEMEIHLQTNAEKGTITIQNTGIGMTQEELVSNLGTIARSGSKAFLDALQNQAEASSKIIGQFGVGFYSAFMVADRVEVYSRSAAPGSLGYQWLSDGSGVFEIAEASGVRTGTKIIIHLKSDCKEFSSEARVRDVVTKYSNFVSFPLYLNGRRMNTLQAIWMMDPKDVREWQHEEFYRYVAQAHDKPRYTLHYKTDAPLNIRSIFYVPDMKPSMFDVSRELGSSVALYSRKVLIQTKATDILPKWLRFIRGVVDSEDIPLNLSRELLQESALIRKLRDVLQQRLIKFFIDQSKKDAEKYAKFFEDYGLFMREGIVTATEQEVKEDIAKLLRYESSALPSGQLTSLSEYASRMRAGTRNIYYLCAPNRHLAEHSPYYEAMKKKDTEVLFCFEQFDELTLLHLREFDKKKLISVETDIVVDHYKEEKFEDRSPAAECLSEKETEELMAWMRNVLGSRVTNVKVTLRLDTHPAMVTVLEMGAARHFLRMQQLAKTQEERAQLLQPTLEINPRHALIKKLNQLRASEPGLAQLLVDQIYENAMIAAGLVDDPRAMVGRLNELLVKALERH
For the molecule B1, the Vmax of ATPase activity of the WT:D158N heterodimer mixture, ATP titration with CaCl2 (μM ATP min^−1/μM ATPase) was 2.31 and the Vmax of ATPase activity of the WT:D158N heterodimer mixture, ATP titration with MgCl2 (μM ATP min^−1/μM ATPase) is 3.77.
